The supplement of paper PMC10567573

B1: BCL2L13 (parent)
chain: MASSSTVPLGFHYETKYVVLSYLG

Variants of: B1
Experiment: protein stability index of a GFP-peptide fusion (GPS, HEK-293T) (PSI 1-6); higher = more stable
Conditions: c terminus: a fixed tail appended
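Also: lentivirally expressed fusions sorted by FACS into six bins by GFP to DsRed ratio, PSI derived from sequencing read proportions per bin multiplied by bin number.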

Variant	protein stability index
MASSSTVPLGFHYETCYVVLSYLG [K16C]	4.41
MASSSTVPLGFHYETNYVVLSYLG [K16N]	3.56
MASSSTVPLGFHYETLYVVLSYLG [K16L]	2.04
MASSSTVPLGFHYETYYVVLSYLG [K16Y]	3.26
MASSSTVPLGFHYETAYVVLSYLG [K16A]	2.64
MASSSTVPLGFHYETMYVVLSYLG [K16M]	2.61
MASSSTVPLGFHYETWYVVLSYLG [K16W]	2.56
MASSSTVPLGFHYETEYVVLSYLG [K16E]	4.22
MASSSTVPLGFHYETPYVVLSYLG [K16P]	1.83
MASSSTVPLGFHYETIYVVLSYLG [K16I]	2.74
MASSSTVPLGFHYETHYVVLSYLG [K16H]	1.46
MASSSTVPLGFHYETSYVVLSYLG [K16S]	2.81
MASSSTVPLGFHYETRYVVLSYLG [K16R]	2.55
MASSSTVPLGFHYETQYVVLSYLG [K16Q]	2.6
MASSSTVPLGFHYETFYVVLSYLG [K16F]	2.32
MASSSTVPLGFHYETVYVVLSYLG [K16V]	2.53
MASSSTVPLGFHYETDYVVLSYLG [K16D]	3.26
MASSSTVPLGFHYETGYVVLSYLG [K16G]	2.38
MASSSTVPLGFHYETKHVVLSYLG [Y17H]	1.95
MASSSTVPLGFHYETKKVVLSYLG [Y17K]	2.1
MASSSTVPLGFHYETKPVVLSYLG [Y17P]	1.95
MASSSTVPLGFHYETKGVVLSYLG [Y17G]	2
MASSSTVPLGFHYETKSVVLSYLG [Y17S]	1.66
MASSSTVPLGFHYETKDVVLSYLG [Y17D]	1.73

Variant	protein stability index
MASSSTVPLGFHYETKAVVLSYLG [Y17A]	2.67
MASSSTVPLGFHYETKTVVLSYLG [Y17T]	1.62
MASSSTVPLGFHYETKMVVLSYLG [Y17M]	3.56
MASSSTVPLGFHYETKCVVLSYLG [Y17C]	2.48
MASSSTVPLGFHYETKEVVLSYLG [Y17E]	1.86
MASSSTVPLGFHYETKFVVLSYLG [Y17F]	3.51
MASSSTVPLGFHYETKQVVLSYLG [Y17Q]	1.84
MASSSTVPLGFHYETKRVVLSYLG [Y17R]	1.66
MASSSTVPLGFHYETKNVVLSYLG [Y17N]	1.62
MASSSTVPLGFHYETKLVVLSYLG [Y17L]	2.22
MASSSTVPLGFHYETKYVVHSYLG [L20H]	2.01
MASSSTVPLGFHYETKYVVFSYLG [L20F]	3.51
MASSSTVPLGFHYETKYVVDSYLG [L20D]	2.18
MASSSTVPLGFHYETKYVVESYLG [L20E]	1.78
MASSSTVPLGFHYETKYVVASYLG [L20A]	2.12
MASSSTVPLGFHYETKYVVKSYLG [L20K]	2.52
MASSSTVPLGFHYETKYVVGSYLG [L20G]	1.74
MASSSTVPLGFHYETKYVVCSYLG [L20C]	2.58
MASSSTVPLGFHYETKYVVISYLG [L20I]	1.71
MASSSTVPLGFHYETKYVNLSYLG [V19N]	1.94
MASSSTVPLGFHYETKYVHLSYLG [V19H]	1.73
MASSSTVPLGFHYETKYVMLSYLG [V19M]	3.27
MASSSTVPLGFHYETKYVSLSYLG [V19S]	2.19
MASSSTVPLGFHYETKYVELSYLG [V19E]	1.7

Variant	protein stability index
MASSSTVPLGFHYETKYVFLSYLG [V19F]	1.5
MASSSTVPLGFHYETKYVILSYLG [V19I]	3.19
MASSSTVPLGFHYETKYVWLSYLG [V19W]	1.91
MASSSTVPLGFHYETKYVKLSYLG [V19K]	1.34
MASSSTVPLGFHYETKYVGLSYLG [V19G]	2.09
MASSSTVPLGFHYETKYVPLSYLG [V19P]	2.2
MASSSTVPLGFHYETKYVDLSYLG [V19D]	1.45
MASSSTVPLGFHYETKYVYLSYLG [V19Y]	2.63
MASSSTVPLGFHYETKYVTLSYLG [V19T]	3.32
MASSSTVPLGFHYETKYVLLSYLG [V19L]	2.29
MASSSTVPLGFHYETKYVQLSYLG [V19Q]	1.71
MASSSTVPLGFHYETKYVCLSYLG [V19C]	2.34
MASSSTVPLGFHYETKYVALSYLG [V19A]	1.99
MASSSTVPLGFHYETKYVRLSYLG [V19R]	1.41
MASSSTVPLGFHYETKYKVLSYLG [V18K]	2.31
MASSSTVPLGFHYETKYGVLSYLG [V18G]	1.53
MASSSTVPLGFHYETKYIVLSYLG [V18I]	2.81
MASSSTVPLGFHYETKYDVLSYLG [V18D]	1.89
MASSSTVPLGFHYETKYEVLSYLG [V18E]	2.02
MASSSTVPLGFHYETKYPVLSYLG [V18P]	1.91
MASSSTVPLGFHYETKYRVLSYLG [V18R]	1.88
MASSSTVPLGFHYETKYAVLSYLG [V18A]	2.24
MASSSTVPLGFHYETKYNVLSYLG [V18N]	1.56
MASSSTVPLGFHYETKYHVLSYLG [V18H]	1.88

Variant	protein stability index
MASSSTVPLGFHYETKYLVLSYLG [V18L]	1.88
MASSSTVPLGFHYETKYQVLSYLG [V18Q]	1.37
MASSSTVPLGFHYETKYTVLSYLG [V18T]	2.88
MASSSTVPLGFHYETKYMVLSYLG [V18M]	2.55
MASSSTVPLGFHYETKYSVLSYLG [V18S]	1.79
MASSSTVPLGFHYETKYYVLSYLG [V18Y]	2.6
MASSSTVPLGFHYETKYFVLSYLG [V18F]	3.21
MASSSTVPLGFHYETKYWVLSYLG [V18W]	1.84
MASSSTVPLGFHYERKYVVLSYLG [T15R]	1.36
MASSSTVPLGFHYEYKYVVLSYLG [T15Y]	2.75
MASSSTVPLGFHYEKKYVVLSYLG [T15K]	1.4
MASSSTVPLGFHYEMKYVVLSYLG [T15M]	2.79
MASSSTVPLGFHYEHKYVVLSYLG [T15H]	1.91
MASSSTVPLGFHYEPKYVVLSYLG [T15P]	2.06
MASSSTVPLGFHYEQKYVVLSYLG [T15Q]	2.84
MASSSTVPLGFHYEIKYVVLSYLG [T15I]	3.13
MASSSTVPLGFHYELKYVVLSYLG [T15L]	2.1
MASSSTVPLGFHYEVKYVVLSYLG [T15V]	3.06
MASSSTVPLGFHYEWKYVVLSYLG [T15W]	2.05
MASSSTVPLGFHYESKYVVLSYLG [T15S]	1.11
MASSSTVPLGFHYENKYVVLSYLG [T15N]	1.75
MASSSTVPLGFHYEGKYVVLSYLG [T15G]	1.34
